These results are taken from paper PMC3542637.

Common to all, as to test: purified protein
Substrate in data set [1]: NC(=O)c1ccc[n+]([C@@H]2O[C@H](COP(=O)(O)OP(=O)(O)OC[C@H]3O[C@@H](n4cnc5c(N)ncnc54)[C@H](OP(=O)(O)O)[C@@H]3O)[C@@H](O)[C@H]2O)c1
In kind it is biochemical, Burkholderia multivorans. Conditions: 200 μM L-fucose, pH 8.0, 50 mM BICINE, 30 °C, varied: cofactor.

Substrate in data set [2]: NC(=O)c1ccc[n+]([C@@H]2O[C@H](COP(=O)(O)OP(=O)(O)OC[C@H]3O[C@@H](n4cnc5c(N)ncnc54)[C@H](O)[C@@H]3O)[C@@H](O)[C@H]2O)c1
It counts as biochemical, Burkholderia multivorans. Conditions: 200 μM L-fucose, pH 8.0, 50 mM BICINE, 30 °C, varied: cofactor.

Substrate in data set [3]: C[C@H]1C[C@@H](O)[C@H](O)C(=O)O1
It counts as biochemical, Burkholderia multivorans. The note with it: pH 7.1, 2.5 mM MOPS, 0.2 M NaCl, 1% DMSO, 30 °C.

Substrate in data set [4]: C[C@H](O)[C@H]1OC(=O)[C@@H](O)[C@@H]1O
It counts as biochemical, Burkholderia multivorans. The note with it: pH 8.3, 2.5 mM BICINE, 0.2 M NaCl, 1% DMSO, 30 °C.

Substrate in data set [5]: O=C1O[C@H]([C@@H](O)CO)[C@@H](O)[C@@H]1O
In kind it is biochemical, Burkholderia multivorans. The note with it: pH 8.3, 2.5 mM BICINE, 0.2 M NaCl, 1% DMSO, 30 °C.

Substrate in data set [6]: O=C1O[C@@H](CO)[C@@H](O)[C@@H]1O
In kind it is biochemical, Burkholderia multivorans. Conditions: pH 8.3, 2.5 mM BICINE, 0.2 M NaCl, 1% DMSO, 30 °C.

Substrate in data set [7]: O=C1O[C@H](CO)[C@@H](O)[C@@H]1O
In kind it is biochemical, Burkholderia multivorans. The note with it: pH 8.3, 2.5 mM BICINE, 0.2 M NaCl, 1% DMSO, 30 °C.

Substrate in data set [8]: C[C@H]1C[C@@H](O)[C@H](O)C(=O)O1
It counts as biochemical, Burkholderia ambifaria. Conditions: pH 7.1, 2.5 mM MOPS, 0.2 M NaCl, 1% DMSO, 30 °C.

Substrate in data set [9]: C[C@H](O)[C@H]1OC(=O)[C@@H](O)[C@@H]1O
In kind it is biochemical, Burkholderia ambifaria. The note with it: pH 8.3, 2.5 mM BICINE, 0.2 M NaCl, 1% DMSO, 30 °C.

Substrate in data set [10]: O=C1O[C@H]([C@@H](O)CO)[C@@H](O)[C@@H]1O
In kind it is biochemical, Burkholderia ambifaria. Conditions: pH 8.3, 2.5 mM BICINE, 0.2 M NaCl, 1% DMSO, 30 °C.

Substrate in data set [11]: O=C1O[C@@H](CO)[C@@H](O)[C@@H]1O
It counts as biochemical, Burkholderia ambifaria. The note with it: pH 8.3, 2.5 mM BICINE, 0.2 M NaCl, 1% DMSO, 30 °C.

Substrate in data set [12]: O=C1O[C@H](CO)[C@@H](O)[C@@H]1O
In kind it is biochemical, Burkholderia ambifaria. Conditions: pH 8.3, 2.5 mM BICINE, 0.2 M NaCl, 1% DMSO, 30 °C.

B1: BmulJ_04919 (Burkholderia multivorans ATCC 17616) (protein)
chain: MDLNLQDKVVIVTGGASGIGGAISMRLAEERAIPVVFARHAPDGAFLDALAQRQPRATYLPVELQDDAQCRDAVAQTIATFGRLDGLVNNAGVNDGIGLDAGRDAFVASLERNLIHYYAMAHYCVPHLKATRGAIVNISSKTAVTGQGNTSGYCASKGAQLALTREWAVALREHGVRVNAVIPAEVMTPLYRNWIATFEDPEAKLAEIAAKVPLGRRFTTPDEIADTAVFLLSPRASHTTGEWLFVDGGYTHLDRALV
The term Km denotes the substrate concentration at which the rate is half of its maximum. What is called kcat is the number of substrate molecules converted per active site and unit of time at saturation. The term kcat/Km denotes the turnover number divided by the Michaelis constant. On to B1, for which, in “purified protein [1]”, the Km amounted to 4.0 ± 0.5 µM, the kcat worked out at 11 ± 0.2 s⁻¹ and the kcat/Km is 3e+06 M⁻¹ s⁻¹. Further, in the data set “purified protein [2]”, the Michaelis constant (Km) is 28 ± 4 µM.

B2: BmulJ_04915 (Burkholderia multivorans ATCC 17616) (protein)
chain: MGALRIDSHQHFWRYRAADYPWIGAGMGVLARDYLPDALHPLMHAQALGASIAVQARAGRDETAFLLELACDEARIAAVVGWEDLRAPQLAERVAEWRGTKLRGFRHQLQDEADVRAFVDDADFARGVAWLQANDYVYDVLVFERQLPDVQAFCARHDAHWLVLDHAGKPALAEFDRDDTALARWRAALRELAALPHVVCKLSGLVTEADWRRGLRASDLRHIEQCLDAALDAFGPQRLMFGSDWPVCLLAASYDEVASLVERWAESRLSAAERSALWGGTAARCYALPEPADARL
Turning to B2, the Km in “purified protein [3]” stood at 130 ± 30 µM; in “purified protein [4]”, 1400 ± 200 µM; in the data set “purified protein [5]”, 1100 ± 200 µM; in “purified protein [6]”, 1500 ± 300 µM; in “purified protein [7]”, 700 ± 50 µM. For the same protein, the kcat in the data set “purified protein [3]” was determined as 994 ± 64 s⁻¹; in the data set “purified protein [4]”, 140 ± 8 s⁻¹; in the data set “purified protein [5]” it was 32 ± 2 s⁻¹; in the data set “purified protein [6]”, 14 ± 1 s⁻¹; in “purified protein [7]”, 59 ± 2 s⁻¹.

B3: Bamb_1224 (Burkholderia ambifaria AMMD) (protein)
chain: MTFRIDAHQHFWQMASRDGYWPPQTLDAIYRDFGPQDLEPLLARSGVQRTVVVQSLPTQEDTRYLLDVASRTSFVAAVVGWVDLKSTDAPADIASLARDPKFRGIRPMLQDLADDDWIDDPVLEPAIDAMLAHDLAFDALVTPRHLPALLAFARRYPRLRIVIDHAAKPPIASGRSEAWHVAMSELAAHPNVHCKLSGLWTEAGPHPDLLRVEPYVRAVCDWFGASRLIWGSDWPVSRLAGHFGDYGAWLAWCEQCCDRFLGPDARARVFGGNACHFYRIDRPSGDQHAQ
B3: the Km was 210 ± 20 µM in “purified protein [8]”; 900 ± 100 µM in “purified protein [9]”; 1300 ± 100 µM in “purified protein [10]”; 1300 ± 300 µM in the data set “purified protein [11]”; 800 ± 100 µM in “purified protein [12]”. The kcat stood at 1530 ± 47 s⁻¹ in “purified protein [8]”; 89 ± 4 s⁻¹ in “purified protein [9]”; 55 ± 2 s⁻¹ in the data set “purified protein [10]”; 6.0 ± 0.5 s⁻¹ in the data set “purified protein [11]”; 19 ± 1 s⁻¹ in the data set “purified protein [12]”.
